Residue numbers refer to the chain shown, from its start.

The term Kd denotes a measure of binding affinity in units of concentration. A word on the koff: it is a measure of how fast the partners let go of each other. As usually defined, the kon is the second-order rate constant of association.

B1: 1B8 scFv displayed on phage (scFv)
scFv: QIQLQQSGAELVKPGASVKMSCKASGYTFASYNLHWVKQTPGQGLEWIGLIYPENGDTSYNQKFKGKATLTADTSSTTAYIQLSSLTSEDSAVYFCARGGFDYWGQGTSLTVSSGGGGSGGGGSGGGGSDIKMTQSPASLSASVGETVTITCGASENIYGALNWYQRKQGKSPQLLIYGATNLADGMSSRFSGSGSGRQYSLKISSLHPDDVATYYCQNVLSTPYTFGGGTKLEIK
B2: 1A3 scFv displayed on phage (scFv)
scFv: B1 scFv with I2V, S7P, T74K, T77S, S109T, S114Q, K132Q
B3: 3F5 scFv displayed on phage (scFv)
scFv: EIQLQQSGAELVKPGASVKMSCKASGYTFRYYNMHWVKRTPGQGLEWIGLIYPDNGDTSYNQKFKGKATLTADTSSSTAYMQLSSLTSEDSAVYYCARGGLDYWGQGTTLTVSSGGGGSGGGGSGGGGSDIVLTQSPASLSASVGETVTITCGASENIYGALNWYQRKQGKSPQLLIYGATNLADGMSSRFSGSGSGRQYSLKISSLHPDDVATYYCQNVLSTPYTFGGGTKLEIK
B4: 3B4 scFv displayed on phage (scFv)
scFv: B3 scFv with I2V, E10D, R30S, K38R, V132Q, L133M, T134I, L140M, I235M
B5: 2B1 scFv displayed on phage (scFv)
scFv: EVQLQQSGAELVKPGASVKMSCKASGYTFASYNLHWVKQTPGQGLEWIGLIYPENGDTSYNQKFKGKATLTADKSSSTAYIQLSSLTSEDSAVYFCARGGFDYWGQGTSLTVSSGGGGSGGGGSGGGGSDIQMIQSPASLSVSVGETVTITCRASENIYSNLAWYQQKQGKSPQLLVYNAKTLADGVPSRFSGSGSGTQYSLKINSLQPEDFGSYYCQHFWSTPYTFGGGTKLEIK
B6: 3E1 scFv displayed on phage (scFv)
scFv: QVQLQQPGAEVVKPGASVKMSCKASGYTFTDYYIHWVKQTPGQGLEWIGAIYPDNGDTSYNQKFKVKATLTADKSSSTAYMQLSSLTSEDSAVYYCARAFTYWGQGTLVTVSAGGGGSGGGGSGGGGSDILITQSPASLSASVGETVTITCGASENIYGALNWYQRKQGKSPQLLIYGATNLADGMSSRFSGSGSGRQYSLKISSLHPDDVATYYCQNVLSTPYTFGGGTKLEIK
B7: 3F11 scFv displayed on phage (scFv)
scFv: QVQLQQSGAELVKPGASVKMSCKASGYTFAPYNIHWVRQTPGQGLEWIGLIYPDNGDTSYNQKFKAKATLTADKSSSTAYMQLSSLTSEDSAVYYCARGGFDYWGQGTSLTVSSGGGGSGGGGSGGGGSDIVMTQSQKFMSTSVGDRVSVTCKASQNVGTNVAWYQQKPGQSPKALIYSASYRYSGVPDRFTGSGSGTDFTLTISNVQSEDLAEYFCQQHYSTPFTFGSGTKLEIK
B8: 3A8 scFv displayed on phage (scFv)
scFv: B7 scFv with A30T, P31I, S209A, E214D, F225Y, S229G, I235M
B9: 3E2 scFv displayed on phage (scFv)
scFv: EIQLQQSGAELVKPGASVKMSCKASGYTFSFYNMHWVKRTPGQGLEWIGLIYPDNGDTSYNQKFKGKATLTADTSSSTAYMQLSSLTSEDSAVYYCARGGLDYWGQGTSLTVSSGGGGSGGGGSGGGGSNIVMTQSQKFMSTSVGDRVSVTCKASQNVGTNVAWYQQKPGQSPKALIYSASYRYTGVPDRFTGSGSGTDFTFTISSVQAEDLAVYYCQQHYSTPYTFGGGTKLEIK
B10: 3D7 scFv displayed on phage (scFv)
scFv: QVQLQQSGAELVKPGASVKMSCKASGYTFSFYNMHWVKRTPGRGLEWIGLIYPDNGDTSYNQKFKGKATLTADTSSSTAYMQLSSLTSEDSAVYYCARGGLDYWGQGTSLTVSSGGGGSGGGGSGGGGSEIVLTQSPASLAVSLGQRATISCKASQSVDYDGDSYMNWYQQKPGQPPKLLIYGISNRFSGVPDRFSGSGSGTDFTLKISTIKPEDLGMYYCLQGTHQPYTFGGGTKLEIK
B11: 3G10 scFv displayed on phage (scFv)
scFv: EVQLQQSGPELVKPGASVKMSCKASGYTFATYNMHWVKQTTGQGLEWIGAIYPDNGDTFYNRKFKDKATLTADKSSTTAYMQLSSLTSEDSAVYYCARGDFAYWGQGTLVTVSAGGGGSGGGGSGGGGSDVLMTQSPASLSASVGETVTITCGASENIYGALNWYQRKQGKSPQLLIYGATNLADGMSSRFSGSGSGRQYSLKISSLHPDDVATYYCQNVLSTPYTFGGGTKLEMK
B12: 3A3 scFv displayed on phage (scFv)
scFv: QVQLQQSGAELVKPGASVKMSCKASGYTFTTYNIHWVRQTPGQGLEWIGLIYPDNGDTSYNQKFKAKATLTADKSSSTAYMHLSSLTSEDSAVYYCARGGFDYWGQGTTLTVSSGGGGSGGGGSGGGGSDIVMTQSHKFMSTSVGDRVSITCKASQDVNTDVSWYQQKPGQSPKLLIYSASYRYTGVPTRFTGSGSGTDFTFTISGVQAEDLADYYCQQHYNTPYTFGGGTRLEIK
B13: 3E7 scFv displayed on phage (scFv)
scFv: QVQLQQSGAELVKPGASVKMSCKASGYTFTIYNIHWVRQTPGQGLEWIGLIYPDNGDTSYNQKFKAKATLTADKSSSTAYMQLSSLTSEDSAVYYCARGGFDYWGQGTTLTVSSGGGGSGGGGSGGGGSNIVMTQSQKFMSTSVGDRVSVTCKASQNVGTNVAWYQQKPGQSPKALIYSASYRYSGVPDRFTGSGSGTDFTLTISGVQAEDLADYYCQQHYNTPYTFGGGTKLEIK
B14: 1D7 scFv displayed on phage (scFv)
scFv: QIQLQQSGAELVKPGASVKMSCKASGYTFRYYNMHWVKRTPGQGLEWIGLIYPDNGDTSYNQKFKGKATLTADTSSSTAYMQLSSLTSEDSAVYYCARGGLDYWGQGTSLTVSSGGGGSGGGGSGGGGSDIQMTQSPSSMSASLGDRITITCQATQDIVKNLNWYQQKPGKPPSFLIYYATELAEGVPSRFSGSGSGSDYSLTISNLESEDFADYYCLQFYEFPLTFGAGTKLELK
B15: 3H6 scFv displayed on phage (scFv)
scFv: QVQLQQSGAELVKPGASVKMSCKASGYTFSFYNIHWVRQTPGQGLEWIGLIYPDNGDTSYNQKFKAKATLTADKSSSTAYMQLSSLTSEDSAVYYCARGGFDYWGQGTTLTVSSGGGGSGGGGSGGGGSDIQMTQSPASLSASVGETVTITCRASENIYSYLAWYQQKQGKSPQLLVYNAKTLAEGVPSRFSGSGSGTQFSLKINSLQPEDFGSYYCQHHYGTPYTFGGGTKLEMK
B16: 1G6 scFv displayed on phage (scFv)
scFv: EIQLQQSGAELVKPGASVKMSCKASGYTFRYYNMHWVKRTPGQGLEWIGLIYPDNGDTSYNQKFKGKATLTADTSSSTAYMQLSSLTSEDSAVYYCARGGLDYWGQGTSLTVSSGGGGSGGGGSGGGGSNIVMTQSHKFMSTSVGDRVSITCKASQDVNTDVAWYQQKPGQSPKLLIYSASYRYTGVPTRFTGSGSGTDFTFTISGVQAEDLADYYCQQHYNTPYTFGGGTKLELK
B17: 2B2 scFv displayed on phage (scFv)
scFv: QLQLQQSGAELVKPGASVKMSCKASGYTFASYNLHWVKQTPGQGLEWIGLIYPENGDTSYNQKFKDKATLTADKSSTTAYIQLSSLASEDSAVYFCARGGFDYWGQGTTLTVSSGGGGSGGGGSGGGGSDIVMTQSQKFMSTSVGDRVSVTCKASQNVGTNVAWYQQKPGQSPKALIYSASYRYSGVPDRFTGSGSGTDYTLTISSVQAEDLALYYCQQHYSTPYTFGGGTKLELK
B18: 3F10 scFv displayed on phage (scFv)
scFv: EVQLQQSGAELVKPGASVKMSCKASGYTFSFYNIHWVRQTPGQGLEWIGLIYPDNGDTSYNQKFKAKATLTADKSSSTAYMQLSSLTSEDSAVYYCARGGFDYWGQGTTLTVSSGGGGSGGGGSGGGGSDVLMTQSPASLSASVGETVTITCGASENIYGALNWYQRKQGKSPQLLIYGATNLADGMSSRFSGSGSGRQYSLKISSLHPDDVATYYCQNVLSTPYTFGGGTKLEIK
B19: 3E3 scFv displayed on phage (scFv)
scFv: QVQLQQPGAVLVKPGASVRMSCKASGYTFPYYNVHWVKRTPGQGLEWIGLIYPDNGDTSYNQKFTGKATLTADTSSSTAYMQLSSLTSEDSAVYYCARGGLDYWGQGTTLTVSAGGGGSGGGGSGGGGSDVQITQSPASLSASVGETVTITCGASENIYGALNWYQRKQGKSPQLLIYGATNLADGMSSRFSGSGSGRQYSLKISSLHPDDVATYYCQNVLSTPYTFGGGTKLEIK
B20: 3A8 scFv-Fc (Fc fusion)
chain: QVQLQQSGAELVKPGASVKMSCKASGYTFTIYNIHWVRQTPGQGLEWIGLIYPDNGDTSYNQKFKAKATLTADKSSSTAYMQLSSLTSEDSAVYYCARGGFDYWGQGTSLTVSSGGGGSGGGGSGGGGSDIVMTQSQKFMSTSVGDRVSVTCKASQNVGTNVAWYQQKPGQSPKALIYSASYRYSGVPDRFTGSGSGTDFTLTISNVQAEDLADYFCQQHYSTPYTFGGGTKLEMKESKYGPPCPPCPAPEAAGGPSVFLFPPKPKDTLMISRTPEVTCVVVDVSQEDPEVQFNWYVDGVEVHNAKTKPREEQFNSTYRVVSVLTVLHQDWLNGKEYKCKVSNKGLPSSIEKTISKAKGQPREPQVYTLPPSQEEMTKNQVSLTCLVKGFYPSDIAVEWESNGQPENNYKTTPPVLDSDGSFFLYSKLTVDKSRWQEGNVFSCSVMHEALHNHYTQKSLSLSLG

The target of the first assay is extracellular domain of the FGFR2b protein (NP_075259.4) (UniProt P21802). Kind of assay: phage ELISA.
Sequence of extracellular domain of the FGFR2b protein (NP_075259.4) (P21802 other isoform, or with tags, fused parts or gaps): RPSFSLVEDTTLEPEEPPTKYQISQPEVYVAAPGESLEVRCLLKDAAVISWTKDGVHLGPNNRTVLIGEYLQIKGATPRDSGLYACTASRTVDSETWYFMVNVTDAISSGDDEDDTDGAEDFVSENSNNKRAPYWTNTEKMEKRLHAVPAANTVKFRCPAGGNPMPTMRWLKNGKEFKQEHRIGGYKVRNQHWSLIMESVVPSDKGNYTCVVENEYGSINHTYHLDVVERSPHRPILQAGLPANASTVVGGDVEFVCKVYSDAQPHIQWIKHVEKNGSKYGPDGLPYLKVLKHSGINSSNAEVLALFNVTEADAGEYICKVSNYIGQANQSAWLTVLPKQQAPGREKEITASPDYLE
Take B1: the OD (450 nm) value was determined as 2.65.
On the same count and under the same terms, next, B2: 2.67.
In turn, B3 gave an OD (450 nm) value of 1.94.
B4 displayed an OD (450 nm) value of 2.47.
For the molecule B5, the OD (450 nm) value is 2.33.
For B6, the OD (450 nm) value stood at 2.17.
As to B7, the OD (450 nm) value was 2.
Turning to B8, the OD (450 nm) value came out at 2.22.
On to B9, for which the OD (450 nm) value came to 1.87.
On to B10, for which the OD (450 nm) value is 2.2.
Consider B11, for which the OD (450 nm) value stood at 1.95.
Molecule B12 gave an OD (450 nm) value of 2.33.
Take B13: the OD (450 nm) value was 1.88.
The same measure, in the same setting: for B14 the value was 2.14.
B15: the OD (450 nm) value turned out to be 2.29.
Molecule B16 registered an OD (450 nm) value of 2.44.
On to B17, for which the OD (450 nm) value was found to be 2.38.
With B18, the OD (450 nm) value came out at 1.85.
As to B19, the OD (450 nm) value came to 2.28.

In another assay the target is recombinant mouse FGFR2b (mouse) (UniProt P21803). Kind of assay: BLI, antibody on AHC2 sensor. A general note: Biolayer interferometry detects binding as a change in optical thickness at a sensor tip.
Sequence of recombinant mouse FGFR2b (mouse) (P21803 22-377): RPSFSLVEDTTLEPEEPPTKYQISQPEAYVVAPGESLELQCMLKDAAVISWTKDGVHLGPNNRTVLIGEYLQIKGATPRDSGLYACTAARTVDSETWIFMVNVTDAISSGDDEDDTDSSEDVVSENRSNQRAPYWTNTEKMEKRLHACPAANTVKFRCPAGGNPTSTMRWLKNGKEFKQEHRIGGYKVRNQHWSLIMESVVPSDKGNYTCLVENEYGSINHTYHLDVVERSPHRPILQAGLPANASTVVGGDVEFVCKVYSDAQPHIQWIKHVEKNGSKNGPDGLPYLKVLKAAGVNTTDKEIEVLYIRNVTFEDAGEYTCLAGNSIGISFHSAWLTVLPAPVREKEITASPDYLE
As to B20, the Kd is 7.17 nM, the koff worked out at 0.000306 s⁻¹ and the kon came out at 42700 M⁻¹ s⁻¹.

These data come from patent EP4714976A1.
